Test [1] deals with T1, FTM-NN protein (membrane anchorless form of the Long fusion protein of hRSV, 70 kDa) (human respiratory syncytial virus, …, UniProt P12568 26-524). As to the kind of experiment: competition ELISA, periplasmic extract diluted 1:300, competitor 101F Fab. A general note: ELISA stands for enzyme-linked immunosorbent assay.
Test [2] addresses T1, FTM-NN protein (membrane anchorless …). As to the kind of experiment: competition ELISA, periplasmic extract diluted 1:100, competitor 101F Fab.
Test [3] shares this target. As to the kind of experiment: ELISA, periplasmic extract on immobilised F protein; signal as fold over blank.
Test [4] shares this target. As to the kind of experiment: competition ELISA, periplasmic extract diluted 1:1000, competitor 101F Fab.
Test [5] deals with T2, hRSV FTM- protein (membrane anchorless form of the fusion protein, 70 kDa) (human respiratory syncytial virus, UniProt P12568 26-524).
T2 construct: extracellular domain
In words: SPR (Biacore T100), FTM- amine-coupled on CM5 chip, 1:1 Langmuir fit. On the technique in general: SPR reads the build-up and loss of mass on a sensor chip optically.

A word on the Kd: it is a measure of binding affinity in units of concentration. Higher therefore signals a looser complex. As usually defined, the koff is the first-order rate constant of dissociation. A low value points to slow dissociation. Usually kon stands for the second-order rate constant of association.

B1: PMP23E5 (VHH)
VHH: EVQLMESGGGLVQAGGSLRLSCAASGGTFSSYAMGWFRQAPGEERDFVAAIGWSGNSPYYAQFVKGRFTISRDNAKNTVHLQMNSLKPEDTAVYYCAAAHNTMGSDYEGYDYWGQGTQVTVSS
As for B1, the “% Inhibition 101F Fab (1:300 PE)” value in test [1] was 16%. The “% Inhibition 101F Fab (1:100 PE)” value in test [2] was found to be 37%. For the same molecule, the “Binding RSV-A, Fold blanc” value in test [3] came out at 3.4 fold over blank.

B2: PMP13B4 (VHH)
VHH: EVQLVESGGGLVQAGGSLRLSCAASGFTFDDYAIGWFRQAPGKEREAVSCISSSDGSTYYADSVKGRFTISSDNAKNMVYLQMNSLKPEDTAVYYCAADLLRTAVGCLDYRGTYYPRTTMDYRGKGTLVTVSS
For the molecule B2, the “% Inhibition 101F Fab (1:300 PE)” value in test [1] worked out at 47%. Moreover, in test [2], the “% Inhibition 101F Fab (1:100 PE)” value came to 82%. Moreover, the “Binding RSV-A, Fold blanc” value in test [3] came out at 2.7 fold over blank. Moreover, the “% Inhibition 101F Fab (1:1000 PE)” value in test [4] is 20%.

B3: PMP8A1 (VHH)
VHH: EVQLVESGGGLVQPGGSLRVSCAASGFTFNDYIMGWFRQAPGKERMFIAAISGTGTIKYYGDLVRGRFTISRDNAKNTVYLRIDSLNPEDTAVYYCAARQDYGLGYRESHEYDYWGQGTQVTVSS
In the case of B3, the “% Inhibition 101F Fab (1:300 PE)” value in test [1] was determined as 55%. Further, the “Binding RSV-A, Fold blanc” value in test [3] is 3.7 fold over blank. The “% Inhibition 101F Fab (1:1000 PE)” value in test [4] is 20%.

B4: PMP8B10 (VHH)
VHH: EVQLVESGGGLVQAGASLRLSCAASGLAFSRYAMGWFRQAPGKERESVAAISSSGDNIYYADSVKGQFTMSRDNAKSSVYLQMINLKPEDTAVYYCAATSPLFVASDYFEASRYGYWGQGTQVTVSS
With B4, the “% Inhibition 101F Fab (1:300 PE)” value in test [1] worked out at 31%. Moreover, the “% Inhibition 101F Fab (1:100 PE)” value in test [2] was determined as 56%. The “Binding RSV-A, Fold blanc” value in test [3] amounted to 3.5 fold over blank. In addition, in test [4], the “% Inhibition 101F Fab (1:1000 PE)” value turned out to be 6%.

B5: LG191E4 (VHH)
VHH: EVQLVESGGGLVQAGGSLRLSCAASGPTFSADTMGWFRQAPGKEREFVATIPWSGGIAYYSDSVKGRFTMSRDNAKNTVDLQMNSLKPEDTALYYCAGSSRIYIYSDSLSERSYDYWGQGTQVTVSS
With B5, in test [5], the Kd was 0.7 nM, the koff stood at 0.000208 s⁻¹ and the kon came out at 298000 M⁻¹ s⁻¹.

B6: LG192A8 (VHH)
VHH: EVQLVESGGGLVQAGGSLRLSCAASERTVIAYTMGWFRRAPGKERDFVAAMNWNGGNTIYADSAKGRFTISRDNAKNTVYLQMNSLKAEDTAVYYCAARPRFWGSYEYDYWGQGTQVTVSS
Regarding B6, in test [5], binding was put at a Kd of 2.91 nM, the koff was determined as 0.000937 s⁻¹ and the kon is 322000 M⁻¹ s⁻¹.

B7: PMP13A1 (VHH)
VHH: EVQLVESGGGLVQPGGSLRLSCAASGLTLDYYALGWFRQAPGKEREGVSCISSADHSTTYADSVKGRFTISWDNAKNTVYLQMNSLKPEDTAVYYCAADPALGCYSGNYYPRYDYWGQGTQVTVSS
On to B7, for which the “% Inhibition 101F Fab (1:300 PE)” value in test [1] is 46%. For the same molecule, in test [2], the “% Inhibition 101F Fab (1:100 PE)” value was 74%. The “Binding RSV-A, Fold blanc” value in test [3] is 2.9 fold over blank. For the same molecule, the “% Inhibition 101F Fab (1:1000 PE)” value in test [4] amounted to 13%.

B8: PMP19E2 (VHH)
VHH: EVQLVESGGGLVQPGGSLRLSCAASGLTLDYYALGWFRQAPGKEREGVSCISSSDHTTTYTDSVKGRFTISWDNAKNTLYLQMNSLKPEDTAVYYCAADPALGCYSGSYYPRYDFWGQGTQVTVSS
Consider B8, for which the “% Inhibition 101F Fab (1:300 PE)” value in test [1] was found to be 27%. Besides, the “% Inhibition 101F Fab (1:100 PE)” value in test [2] was found to be 74%. For the same molecule, in test [3], the “Binding RSV-A, Fold blanc” value came out at 3.5 fold over blank. The “% Inhibition 101F Fab (1:1000 PE)” value in test [4] was found to be 5%.

B9: LG192H1 (VHH)
VHH: EVQLVESGGGLVQAGGSLRLSCAASGIIFSTNHMGWYRRAPGKQRELVGTINRGDSPYYADSVKGRFTISRDNAKNMVYLQMNSLKPEDTAVYYCNAGYIYWGQGTQVTVSS
Consider B9, for which, in test [5], the affinity, expressed as Kd, was 3.72 nM; the koff stood at 0.00611 s⁻¹; the kon was determined as 1.65e+06 M⁻¹ s⁻¹.

B10: LG192C10 (VHH)
VHH: EVQLVESGGGLVQAGGSLRLSCAASEGYFRNYMVGWFRQAPGGERMFVAAISDTAYYADSVKGRFTISRDNAKNTVYLPMNSLKPEDTAVYYCAAAPKSWGTWPLVADTRSYHFWGQGTQVTVSS
In test [5], B10 displayed a dissociation constant Kd of 3.49 nM, a koff of 0.000613 s⁻¹ and a kon of 175000 M⁻¹ s⁻¹.

B11: LG192C4 (VHH)
VHH: EVQLVESGGGLVQAGGSLRLSCEASGRTFSSYAMVGWFRQAPGKEREFVAAVTRWSGARTVYADSVKGRFTISRDNAENTVYLQMNSLKPEDTAVYTCAADSTNRNSGAVYYSWAYDYWGQGTQVTVSS
For B11, in test [5], the Kd is 7.47 nM, the koff is 0.00846 s⁻¹ and the association rate constant (kon) was found to be 1.13e+06 M⁻¹ s⁻¹.

B12: LG192F2 (VHH)
VHH: EVQLVESGGGLVQAGGSLRLSCEASGRTFSPIAMGWFRQAPGKEREFVAVVTRWSGARTVYADSVKGRFTISRDNAENTVYLQMNSLKPEDTAVYTCAADSTNRNSGAIYYTWAYDYWGQGTQVTVSS
In test [5], B12 registered a Kd of 7.14 nM, a koff of 0.00577 s⁻¹ and a kon of 807000 M⁻¹ s⁻¹.

B13: LG191D3 (VHH)
VHH: EVQLVESGGGLVQAGGSLRLSCEASGRTYSRYGMGWFRQAPGKEREFVAAVSRLSGPRTVYADSVKGRFTISRDNAENTVYLQMNSLKPEDTAVYTCAAELTNRNSGAYYYAWAYDYWGQGTQVTVSS
On to B13, for which, in test [5], binding was put at a Kd of 2.05 nM, the dissociation rate constant (koff) is 0.00324 s⁻¹ and the kon is 1.59e+06 M⁻¹ s⁻¹.

B14: LG192C6 (VHH)
VHH: EVQLVESGGGLVQAGGSLRLSCEASGRTERYQAMGWFRQAPGKEREFVAVVTRWSGARTVYADSVKGRFTISRDNAENTVYLQMNSLKPEDTAVYTCAADSTNRNRGAIYYTWAYDYWGQGTQVTVSS
In test [5], B14 displayed a Kd of 7 nM, a koff of 0.00808 s⁻¹ and a kon of 1.15e+06 M⁻¹ s⁻¹.

B15: LG192H2 (VHH)
VHH: EVQLVESGGGLVQAGGSLRLSCEASGRTFSNYAMGWFRQAPGKEREFVAVVTRWSGGRTVYADSVKGRFTISRDNAENTVYLQMNSLKPEDTAVYTCAADSTNRNSGAWYYTWAYDHWGQGTQVTVSS
As for B15, in test [5], binding was characterised by a dissociation constant (Kd) of 15.4 nM, the off-rate (koff) came to 0.0128 s⁻¹ and the kon is 829000 M⁻¹ s⁻¹.

B16: LG192B1 (VHH)
VHH: EVQLVESGGGLVQPGGSLRLSCAASGLTFRNYAIGWFRQAPGKEREGVSCINSGGSITDYLDSVKGRFAISRDNAKSTVYLQMNSLKPEDTAVYYCATDLTSSCPIYSGTDYWGKGTLVTVSS
For B16, in test [5], the Kd was found to be 55.5 nM, the koff was found to be 0.0127 s⁻¹ and the kon stood at 229000 M⁻¹ s⁻¹.

B17: LG191B9 (VHH)
VHH: EVQLVESGGGLVQAGGSLRLSCAASGRTFSSSFMAWFRQVLGSDREFVGGISPGGRFTYYADSRKGRFTISGDNANNTVYLQMHSVKPEDTATYYCAADTQFSGYVPKETNEYDYWGQGTQVTVSS
Turning to B17, in test [5], binding was characterised by a dissociation constant (Kd) of 25.4 nM, the koff was found to be 0.00492 s⁻¹ and the kon turned out to be 194000 M⁻¹ s⁻¹.

Values taken from patent US20200123233A1 (published 2020).
